In publication PMC3328272, “HIV-1 Nef interaction influences the ATP-binding site of the Src-family kinase, Hck” (BMC Chemical Biology, 2012) one finds Kd, koff and kon data, which are given here for two molecules.

The target of the assay is T1, HIV-1 Nef-SF2, untagged (HIV-1 (SF2), UniProt P03407).
T1 construct: also called Nef (B-clade allele SF2); source: E. coli, purified without N-terminal His tag (anion exchange HiPrep Q FF, gel filtration Superdex 75)
Kind of assay: SPR. The settings on record: both partners purified.

T1 sequence (P03407 whole entry): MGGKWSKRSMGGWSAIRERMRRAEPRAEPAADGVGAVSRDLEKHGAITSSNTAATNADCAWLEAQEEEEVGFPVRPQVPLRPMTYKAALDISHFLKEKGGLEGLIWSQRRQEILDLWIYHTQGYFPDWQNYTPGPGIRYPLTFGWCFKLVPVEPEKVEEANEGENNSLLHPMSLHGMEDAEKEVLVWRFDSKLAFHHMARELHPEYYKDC

B1: wild-type human Hck SH3 domain (domain or fragment)
chain: not shown
notes: also called hHck SH3; source: E. coli BL21(DE3)pLysS, purified (anion exchange, IMAC, size-exclusion chromatography)
B1 gave a dissociation constant (Kd) of 70 ± 10 nM, a koff of 0.0118 ± 0.04 s⁻¹ and a kon of 160000 ± 0.06 M⁻¹ s⁻¹.

B2: wild-type mouse Hck SH3 domain (domain or fragment, UniProt P08103 76-136, looked up)
chain: SEDTIVVALYDYEAIHREDLSFQKGDQMVVLEEAGEWWKARSLATKKEGYIPSNYVARVNS
notes: also called mHck SH3; mSH3; source: E. coli BL21(DE3)pLysS, purified (anion exchange, IMAC, size-exclusion chromatography)
B2 returned a dissociation constant Kd of 130 ± 30 nM, a dissociation rate constant (koff) of 0.07 ± 0.36 s⁻¹ and a kon of 554000 ± 1.77 M⁻¹ s⁻¹.

As usually defined, the Kd is the equilibrium constant for the complex coming apart. A lower Kd goes with a tighter complex. For orientation: koff means the first-order rate constant of dissociation. Broadly, the kon is a measure of how fast the partners come together.
